According to US9920105B2, “Human ferritin-derived fusion polypeptide” (Kyungpook National University Industry-Academic Cooperation …, priority 2013, dated 2018):

T1: IL-4 receptor (Homo sapiens, UniProt P24394)
T1 sequence (P24394 26-825): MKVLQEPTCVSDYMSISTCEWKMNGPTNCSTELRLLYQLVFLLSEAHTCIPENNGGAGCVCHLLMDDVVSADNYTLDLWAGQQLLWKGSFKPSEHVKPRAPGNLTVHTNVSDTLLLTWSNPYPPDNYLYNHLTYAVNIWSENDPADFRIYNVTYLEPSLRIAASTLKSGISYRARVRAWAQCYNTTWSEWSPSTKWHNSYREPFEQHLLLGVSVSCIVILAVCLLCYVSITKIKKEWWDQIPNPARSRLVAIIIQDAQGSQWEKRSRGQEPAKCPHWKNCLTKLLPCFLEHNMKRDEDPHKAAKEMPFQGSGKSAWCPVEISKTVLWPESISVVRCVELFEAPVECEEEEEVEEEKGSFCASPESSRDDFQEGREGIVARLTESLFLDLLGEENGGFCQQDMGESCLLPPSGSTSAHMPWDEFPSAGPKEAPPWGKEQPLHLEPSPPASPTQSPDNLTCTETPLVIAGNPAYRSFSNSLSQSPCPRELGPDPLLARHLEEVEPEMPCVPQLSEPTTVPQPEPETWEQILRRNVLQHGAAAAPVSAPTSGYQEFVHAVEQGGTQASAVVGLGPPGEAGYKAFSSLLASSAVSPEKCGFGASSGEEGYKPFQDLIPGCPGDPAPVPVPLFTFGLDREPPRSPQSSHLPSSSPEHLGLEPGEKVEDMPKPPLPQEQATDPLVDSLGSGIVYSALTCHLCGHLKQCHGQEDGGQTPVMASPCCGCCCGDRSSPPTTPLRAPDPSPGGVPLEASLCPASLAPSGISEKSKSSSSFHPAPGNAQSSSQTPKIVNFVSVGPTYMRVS


Legend:
[1] = test system: A549 cells overexpressing IL-4 receptor; assay: Cell binding test using flow cytometry (FACS); format: cell-based, human
Protocol: First, A549 cells were grown to about 80% confluence in a 100 mm-diameter plate. The plated cells were washed twice with PBS, and detached from the plate using Trypsin/EDTA. Then, 2×10^5/100 μl cells were suspended in PBS containing 1% bovine serum albumin (BSA), and incubated at 4° C. for 30 min. […] The above blocking procedure was performed on one group, and was not performed on the other group, and the following experiment was performed on both groups. After washing twice with PBS, the ferritin without AP1 insertion and the AP1-inserted ferritin were diluted to 400 nM in buffer (20 mM Tris, 150 mM NaCl, 180 mM Histidine), and then allowed to bind at 4° C. for 20 min. After washing twice with PBS, the ferritin light chain antibody (D-18, sc-14420) was diluted to 1:400 in PBS buffer containing 1% BSA, and incubated in ice for 30 min. After washing twice with PBS, Alexa Fluor 488 donkey anti-goat IgG (H+L) antibody (invitrogen, USA) was diluted to 1:200 in PBS containing 1% BSA, and incubated in ice for 30 min. After washing twice with PBS, the cells were suspended in 500 ul PBS, and analyzed with FACS.
First, A549 cells were grown to about 80% confluence in a 100 φ plate. The plated cells were washed twice with PBS, and detached from the plate using Trypsin/EDTA. […] After washing twice with PBS, the cells were suspended in 500 ul PBS, and then analyzed with FACS.

[2] = test system: A549 cells overexpressing IL-4 receptor; assay: Cell binding test using confocal microscope; format: cell-based; conditions: 400 nM, 4° C., 20 min, FIG. 6
Protocol: First, A549 cells were grown to about 80% confluence in a 100 mm-diameter plate. The plated cells were washed twice with PBS, and detached from the plate using Trypsin/EDTA. Then, 2×10^5/100 ul cells were suspended in PBS containing 1% bovine serum albumin (BSA), and incubated at 4° C. for 30 min. After washing twice with PBS, the ferritin without AP1 insertion and the AP1-inserted ferritin were diluted to 400 nM in buffer (20 mM Tris, 150 mM NaCl, 180 mM Histidine), and then allowed to bind at 4° C. for 20 min. After washing twice with PBS, the ferritin light chain antibody (D-18, sc-14420) was diluted to 1:400 in PBS buffer containing 1% BSA, and incubated in ice for 30 min. After washing twice with PBS, Alexa Fluor 488 donkey anti-goat IgG (H+L) antibody was diluted to 1:200 in PBS containing 1% BSA, and then incubated in ice for 30 min. After washing twice with PBS, 4% paraformaldehyde (PFA) was added for cell fixation, and cells in suspension were added in the 8-well slide chamber. The cells were attached in the chamber by centrifugation at 1000 rpm for 10 min.
After washing twice with PBS, the cells were stained by incubation with 4′,6-diamidino-2-phenylindole (DAPI) for 3 min in dark place, mounted in antifade reagent to close a cover glass, and analyzed by Z-stack type confocal microscopy.

[3] = biological target: T1, IL-4 receptor; assay: Surface plasmon resonance (SPR) analysis of binding affinity to immobilised IL-4 receptor; conditions: Table 4
Protocol: (§1) Here, the right channel was used as a reference channel. In the two channels, left channel and right channel, 1M ethanolamine (pH 8.5) solution was allowed to flow over the unreacted surface for 7 min for blocking, so as to reduce non-specific adsorption thereof. All test procedures were conducted at a temperature of 25° C. and the flow rate was 25 ul/min.
The buffer (20 mM Tris-HCl pH 8.0, 150 mM NaCl, 180 mM Histidine, 62.5 ug/ml BSA, 0.005% Tween 20) was used through filtering and degassing. The wild type ferritin and the AP1-inserted ferritins were allowed to flow over at concentrations of 0.65 nM, 1.3 nM, 2.6 nM, 5.2 nM, 10.4 nM, 20.8 nM, and 41.6 nM for 3 min, and the same buffer was allowed to flow over for 3 min. For regeneration, 2 M NaCl was allowed to flow over for […] to wash the proteins remaining without dissociation. Specific binding values, obtained by subtracting the right channel value from the left channel value, in the concentration ranging from 0.65 nM to 10.4 nM, were plotted on a graph.
AP1 peptide was allowed to flow over at concentrations of 3.125 uM, 6.25 uM, 12.5 uM, 25 uM, and 50 uM for 3 min, and the same buffer was allowed to flow over for 3 min. For regeneration, 2 M NaCl was allowed to flow over for 1 min to wash the proteins remaining without dissociation. Specific binding values, obtained by subtracting the right channel value from the left channel value, in the respective concentrations, were plotted on a graph (see FIG. 8).
In the binding graph, the RU value expressing the amount of bound protein was measured by subtracting the blank (buffer) value and reference channel (right channel) value, using Scrubber software. The KD value was obtained from the binding RU (Req) values measured at the respective concentrations using KaleidaGraph software.
The experiment was conducted like in example <5-1>, and RU values shown for concentrations ranging from 0.65 nM to 41.6 nM were plotted on a graph using GraphPad prism 4 program.
For comparison of binding affinity between FTL-AP1 and FTL-AP1_AP1, surface plasmon resonance analysis was conducted. Analysis was conducted by the same method as in Example <5-1>. The binding of FTL-AP1 was analyzed at concentrations of 0.26 nM, 1.041 nM, 2.083 nM, and 4.166 nM, respectively, and the binding of FTL-AP1_AP1 was analyzed at concentrations of 0.520 nM, 1.041 nM, 2.083 nM, and 4.166 nM, respectively.

[4] = biological target: integrin alphavbeta3 (Homo sapiens, UniProt P05106+P06756); assay: SPR analysis of binding affinity to integrin alphavbeta3; conditions: FIG. 16
Chain of integrin alphavbeta3 (P06756 31-1048): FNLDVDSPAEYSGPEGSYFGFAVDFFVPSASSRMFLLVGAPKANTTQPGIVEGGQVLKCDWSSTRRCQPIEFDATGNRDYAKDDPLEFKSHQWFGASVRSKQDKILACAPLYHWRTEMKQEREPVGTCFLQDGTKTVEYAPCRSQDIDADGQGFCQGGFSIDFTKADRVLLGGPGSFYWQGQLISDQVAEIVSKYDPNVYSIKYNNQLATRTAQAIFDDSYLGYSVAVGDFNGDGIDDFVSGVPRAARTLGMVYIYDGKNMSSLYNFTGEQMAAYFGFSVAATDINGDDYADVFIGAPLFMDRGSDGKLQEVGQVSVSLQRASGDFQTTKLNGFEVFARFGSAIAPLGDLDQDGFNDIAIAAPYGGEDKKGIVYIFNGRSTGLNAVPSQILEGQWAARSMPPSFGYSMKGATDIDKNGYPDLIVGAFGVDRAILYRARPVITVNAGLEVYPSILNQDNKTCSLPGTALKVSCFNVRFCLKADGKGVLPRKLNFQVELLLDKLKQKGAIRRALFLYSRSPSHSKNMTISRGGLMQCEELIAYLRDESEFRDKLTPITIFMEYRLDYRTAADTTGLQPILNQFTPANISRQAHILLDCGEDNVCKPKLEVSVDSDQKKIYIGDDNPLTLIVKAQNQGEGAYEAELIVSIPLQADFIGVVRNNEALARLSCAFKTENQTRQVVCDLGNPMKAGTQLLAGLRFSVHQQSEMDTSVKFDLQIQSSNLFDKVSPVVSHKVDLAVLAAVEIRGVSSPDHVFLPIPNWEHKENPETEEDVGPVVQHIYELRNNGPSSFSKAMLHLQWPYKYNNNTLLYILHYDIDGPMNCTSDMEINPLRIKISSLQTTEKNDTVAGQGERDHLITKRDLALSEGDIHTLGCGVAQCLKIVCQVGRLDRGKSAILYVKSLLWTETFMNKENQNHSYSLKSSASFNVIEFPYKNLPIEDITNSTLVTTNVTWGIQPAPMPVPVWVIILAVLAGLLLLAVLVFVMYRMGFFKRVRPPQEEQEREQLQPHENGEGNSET
Chain of integrin alphavbeta3 (P05106 27-788): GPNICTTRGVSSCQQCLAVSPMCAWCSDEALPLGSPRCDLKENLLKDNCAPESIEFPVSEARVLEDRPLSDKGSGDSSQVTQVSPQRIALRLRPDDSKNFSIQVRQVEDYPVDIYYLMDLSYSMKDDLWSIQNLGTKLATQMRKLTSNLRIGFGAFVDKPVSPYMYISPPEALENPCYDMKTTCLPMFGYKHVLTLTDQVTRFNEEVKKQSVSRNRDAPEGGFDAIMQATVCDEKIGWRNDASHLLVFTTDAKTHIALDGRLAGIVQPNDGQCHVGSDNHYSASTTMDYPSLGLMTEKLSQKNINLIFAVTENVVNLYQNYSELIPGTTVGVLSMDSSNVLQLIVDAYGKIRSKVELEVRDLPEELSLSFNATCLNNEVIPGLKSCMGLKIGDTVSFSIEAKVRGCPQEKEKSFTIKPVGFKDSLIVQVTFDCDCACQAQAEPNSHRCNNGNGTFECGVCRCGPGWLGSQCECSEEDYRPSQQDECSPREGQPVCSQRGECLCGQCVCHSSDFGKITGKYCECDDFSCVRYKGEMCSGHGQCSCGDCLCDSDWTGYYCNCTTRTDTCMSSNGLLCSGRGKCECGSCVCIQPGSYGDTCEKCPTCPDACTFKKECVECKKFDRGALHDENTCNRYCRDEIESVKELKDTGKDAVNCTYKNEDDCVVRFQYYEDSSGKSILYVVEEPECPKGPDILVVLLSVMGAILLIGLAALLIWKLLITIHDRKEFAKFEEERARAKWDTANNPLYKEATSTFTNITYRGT
Protocol: as §1, with “Then, 40 mM N-(3-dimethylaminopropyl)-N′-ethylcarbodiimide hydrochloride (EDC)/10 mM N-hydroxy-succinimide (NHS) were allowed to flow over each channel (left, right) of carboxymethyl dextran chip for 7 min for surface activation, and then 200 ul of the prepared alphavbeta3 protein was allowed to flow over the left channel for 7 min for immobilization. Here,” for “Here,”
The buffer (10 mM Hepes pH 7.4, 150 mM NaCl, 180 mM Histidine, 1 mM MgCl2, 0.005% Tween 20) was used through filtering and degassing. The wild type ferritin and the RGD-inserted ferritins were allowed to flow over at concentrations of 0.65 nM, 1.3 nM, 2.6 nM, 5.2 nM, 10.4 nM, 20.8 nM, and 41.6 nM, respectively, for 3 min, and the same buffer was allowed to flow over for 3 min. For regeneration, 2 M NaCl was allowed to flow over for 1 min to wash the proteins remaining without dissociation. […]
In the binding graph, the RU value expressing the amount of bound protein was measured by subtracting the blank (buffer) value and reference channel (right channel) value, using Scrubber software.

Molecule | Koff [3] | Kon [3] | binding to integrin alphavbeta3 [4] | also measured
wild type ferritin: human ferritin light chain (SEQ ID NO: 1) without AP1 insertion, control cage [reference compound] | – | – | – | binding to IL-4 receptor in A549 cells (FACS) ([1]; 400 nM, 4° C., 20 min, FIG. 5): did not bind to IL-4 receptor; binding to A549 cells / cell membrane (confocal microscopy) [2]: did not bind to A549 cells
FTL-AP1_AP1: fusion polypeptide in which AP1S was additionally fused to N-terminal of FTL_GG-AP1S (protein, left off: small tags and cut ends) MRKRLDRNGGGSGMSSQIRQNYSTDVEAAVNSLVNLYLQASYTYLSLGFYFDRDDVALEGVSHFFRELAEEKREGYERLLKMQNQRGGRALFQDIKKPAEDEWGKTPDAMKAAMALEKKLNQALLDLHALGSARTDPHLCDFLETHFLDEEVKLIKKMGDHLTNLHRGSRKRLDRNGGPEAGLGEYLFERLTLKHD | 3.8 × 10^−5 S^−1 | 8.26 × 10^5 M^−1S^−1 | – | amount bound to IL-4 receptor compared with FTL-AP1 (FACS) ([1]; at 400 nM and 200 nM, FIG. 13): larger amount than FTL-AP1
FTL-RGD-AP1: human ferritin light chain with inserted RGD and AP1 peptides (AP1 exchanged with RGD relative to FTL-AP1_RGD) (protein, left off: small tags and cut ends) MRGDGGGSGMSSQIRQNYSTDVEAAVNSLVNLYLQASYTYLSLGFYFDRDDVALEGVSHFFRELAEEKREGYERLLKMQNQRGGRALFQDIKKPAEDEWGKTPDAMKAAMALEKKLNQALLDLHALGSARTDPHLCDFLETHFLDEEVKLIKKMGDHLTNLHRGSRKRLDRNGGPEAGLGEYLFERLTLKHD | – | – | bound to integrin alphavbeta3 in a concentration-dependent manner | –
FTL-GRGDSP-AP1: ferritin having inserted GRGDSP and AP1 peptides (protein, left off: small tags and cut ends, ferritin having inserted GRGDSP and AP1 peptides) MGRGDSPGGGSGMSSQIRQNYSTDVEAAVNSLVNLYLQASYTYLSLGFYFDRDDVALEGVSHFFRELAEEKREGYERLLKMQNQRGGRALFQDIKKPAEDEWGKTPDAMKAAMALEKKLNQALLDLHALGSARTDPHLCDFLETHFLDEEVKLIKKMGDHLTNLHRGSRKRLDRNGGPEAGLGEYLFERLTLKHD | – | – | bound to integrin alphavbeta3 in a concentration-dependent manner | –
GG-AP1S: human ferritin light chain with AP1S (RKRLDRN) inserted in GG cassette of the fourth loop; named FTL-AP1 in Examples 6-9 (protein, left off: small tags and cut ends) MSSQIRQNYSTDVEAAVNSLVNLYLQASYTYLSLGFYFDRDDVALEGVSHFFRELAEEKREGYERLLKMQNQRGGRALFQDIKKPAEDEWGKTPDAMKAAMALEKKLNQALLDLHALGSARTDPHLCDFLETHFLDEEVKLIKKMGDHLTNLHRGSRKRLDRNGGPEAGLGEYLFERLTLKHD | 1.25 ± 0.4 × 10^−3 S^−1 | 1.22 ± 0.64 × 10^6 M^−1S^−1 | – | –
